Assay results: patent publication US20220282268A1 (UNIVERSITY COURT OF THE UNIVERSITY OF EDINBURGH, published 2022)

Assays:
[1] = molecular target: A. thaliana Rubisco small subunit 1A (1AAt), mature (Arabidopsis thaliana, UniProt P10795 56-180); test: yeast two-hybrid, growth on SD-L-W-H with 3-AT
Description: (§1) Competent yeast cells (Y2H Gold, Clontech) were prepared from a 50 ml culture grown in YPDA medium supplemented with kanamycin (50 μg ml⁻¹). Cells were washed with ddH2O and a lithium acetate/TE solution (100 mM LiAc, 10 mM Tris-HCl [pH 7.5], 1 mM EDTA) before re-suspending in lithium acetate/TE solution. Cells were then co-transformed with binding and activation domain vectors by mixing 50 μl of competent cells with 1 μg of each plasmid vector and a PEG solution (100 mM LiAc, 10 mM Tris-HCl [pH 7.5], 1 mM EDTA, 40% [v/v] PEG 4000). Cells were incubated at 30° C. for 30 min, then subjected to a heat shock of 42° C. for 20 min. The cells were centrifuged, re-suspended in 500 μl YPDA and incubated at 30° C. for ca 90 min, then centrifuged and washed in TE (10 mM Tris-HCl [pH 7.5], 1 mM EDTA). […] The following day 1 ml of culture was harvested, cell density (OD₆₀₀) measured, centrifuged and then diluted in TE to give a final OD₆₀₀ of 0.5 or 0.1.
(§2) Yeast cultures were then plated onto SD-L-W (yeast synthetic minimal media lacking leucine (L) and tryptophan (W)) and SD-L-W-H (yeast synthetic minimal media lacking L, W, and histidine(H)) (Anachem). […] These plates were then incubated for 3 days before assessing for presence or absence of growth, to perform a semi-quantitative yeast two-hybrid assay as in van Nues and Beggs (van Nues and Beggs, Genetics (2000) 157: 1451-1467). […]

[2] = molecular target: T1, A. thaliana CP12-2 (AtCP12) (Arabidopsis thaliana, UniProt Q9LZP9 54-131, limits assumed); test: yeast two-hybrid
T1 construct: also called AT3G62410; pGADT7_CP12
T1 sequence (looked up): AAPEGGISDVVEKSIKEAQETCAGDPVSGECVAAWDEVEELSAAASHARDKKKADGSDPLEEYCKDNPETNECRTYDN
Description: as §1, §2

[3] = molecular target: the molecule itself; test: yeast two-hybrid, EPYC1 in both the binding domain and the activation domain vector
Description: as §1, §2

[4] = molecular target: T2, 1AAtMOD (α-helices, β-sheets and loop): A. thaliana SSU 1A with α-helices, β-sheets and βA-βB loop replaced … (Arabidopsis thaliana with parts of …); test: yeast two-hybrid (FIG. 3C)
T2 construct: also called 1AAtMod (α-helices, β-sheet and loop); pGADT7_1AAtMOD(α-helices + β-sheets + loop)
T2 chain: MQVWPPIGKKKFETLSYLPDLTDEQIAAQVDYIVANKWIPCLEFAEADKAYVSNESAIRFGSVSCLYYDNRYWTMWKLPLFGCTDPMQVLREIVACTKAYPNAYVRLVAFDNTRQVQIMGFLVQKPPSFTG
Description: (§3) The following day 1 ml of culture was harvested, cell density (OD₆₀₀) measured, centrifuged and then diluted in TE to give a final OD₆₀₀ of 0.5 or 0.1.
(§4) Yeast cultures were then plated onto SD-L-W (yeast synthetic minimal media lacking leucine (L) and tryptophan (W)) and SD-L-W-H (yeast synthetic minimal media lacking L, W, and histidine(H)) (Anachem). Yeast expressing both binding and activation domain constructs was grown on SD-L-W to confirm presence of both plasmids. To assess interaction strength, yeast was plated onto SD-L-W-H with differing concentrations of the HIS3 inhibitor 3-aminotriazole (3-AT). These plates were then incubated for 3 days before assessing for presence or absence of growth, to perform a semi-quantitative yeast two-hybrid assay as in van Nues and Beggs (van Nues and Beggs, Genetics (2000) 157: 1451-1467). The same yeast transformation was used for each interaction study. Different colonies on the same yeast transformation plate were considered independent biological replicates (as for E. coli). Two biological replicates (top and bottom row for each interaction) were spotted from different liquid culture concentrations (0.5 and 0.1 OD). Each interaction experiment was performed at least twice.
(§5) Interactions were only observed between EPYC1 and chimeric 1AAt with the two α-helices from the C. reinhardtii SSU (FIG. 3C). The S1Cr 1AAt with the S1Cr α-helices alone produced a minimal interaction (i.e., on 0 mM 3-AT), which was strengthened by the incorporation of the β-sheets and the βA-βB loop from S1Cr.

[5] = molecular target: T3, 1AAtMOD (β-sheets): A. thaliana SSU 1A with β-sheets replaced with C. reinhardtii β-sheets (Arabidopsis thaliana with parts of …); test: yeast two-hybrid (FIG. 3C)
T3 construct: also called pGADT7_1AAtMOD(β-sheets)
T3 chain: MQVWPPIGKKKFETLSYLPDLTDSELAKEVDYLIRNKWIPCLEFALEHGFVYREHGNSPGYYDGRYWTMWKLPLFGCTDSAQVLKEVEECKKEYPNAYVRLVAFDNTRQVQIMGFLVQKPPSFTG
Description: as §3, §4, §5

[6] = molecular target: T4, 1AAtMOD (β-sheets and loop): A. thaliana SSU 1A with β-sheets and βA-βB loop replaced with those of C. … (Arabidopsis thaliana with parts of …); test: yeast two-hybrid (FIG. 3C)
T4 construct: also called 1AAtMod (β-sheet and loop); pGADT7_1AAtMOD(β-sheets + loop)
T4 chain: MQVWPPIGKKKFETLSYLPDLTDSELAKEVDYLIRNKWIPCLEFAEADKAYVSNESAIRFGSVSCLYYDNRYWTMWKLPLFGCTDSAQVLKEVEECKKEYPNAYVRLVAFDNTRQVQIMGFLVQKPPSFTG
Description: as §3, §4, §5

[7] = molecular target: T5, 1AAtMOD (loop): A. thaliana SSU 1A with βA-βB loop replaced with C. reinhardtii βA-βB loop (Arabidopsis thaliana with parts of …); test: yeast two-hybrid (FIG. 3C)
T5 construct: also called pGADT7_1AAtMOD(loop)
T5 chain: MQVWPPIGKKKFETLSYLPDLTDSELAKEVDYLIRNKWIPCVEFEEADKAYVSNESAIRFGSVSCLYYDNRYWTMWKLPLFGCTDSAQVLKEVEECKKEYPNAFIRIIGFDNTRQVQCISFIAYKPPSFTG
Description: as §3, §4, §5

[8] = molecular target: T6, 1AAtMOD (α-helices and β-sheets): A. thaliana SSU 1A with α-helices and β-sheets replaced with those of C. … (Arabidopsis thaliana with parts of …); test: yeast two-hybrid (FIG. 3C)
T6 construct: also called pGADT7_1AAtMOD(α-helices + β-sheets)
T6 chain: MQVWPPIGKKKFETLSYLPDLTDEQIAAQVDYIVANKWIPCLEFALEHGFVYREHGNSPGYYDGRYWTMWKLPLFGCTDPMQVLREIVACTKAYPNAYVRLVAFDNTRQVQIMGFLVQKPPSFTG
Description: as §3, §4, §5

binding result [1]: no binding
binding result [2]: no binding
binding result [4]: binds
binding result [5]: no binding
binding result [6]: no binding
binding result [7]: no binding
binding result [8]: binds
B1: Essential Pyrenoid Component 1 (EPYC1), full-length, C. reinhardtii (other)
chain: MATISSMRVGAASRVVVSGRVKTVKVAARGSWRESSTATVQASRASSATNRVSPTRSVLPANWRQELESLRNGNGSSSAASSAPAPARSSSASWRDAAPASSAPARSSSASKKAVTPSRSALPSNWKQELESLRSSSPAPASSAPAPARSSSASWRDAAPASSAPARSSSSKKAVTPSRSALPSNWKQELESLRSSSPAPASSAPAPARSSSASWRDAAPASSAPARSSSASKKAVTPSRSALPSNWKQELESLRSNSPAPASSAPAPARSSSASWRDAPASSSSSSADKAGTNPWTGKSKPEIKRTALPADWRKGL
notes: also called Cre10.g436550.t1.2; pGBKT7_EPYC1
binding result [3]: no binding
